According to patent US20250313614A1 (ANNEXON, published 2025):
“And” between values parts separate entries of the source, which are not always exact repeats. Equal values may be shown once.

Legend:
human C1q [1] = molecular target: T1, human C1q (human, UniProt P02745 23-245; P02746 28-253; P02747 29-245); test: cell-based or functional assay
C1q = C1q (Native C1q is a hexamer of A-B-C heterotrimers (18 chains); one chain of each kind is given. The collagen-like regions carry hydroxyproline and hydroxylysine.); test: cell-based or functional assay
Sequence of C1q (Native C1q is a hexamer of A-B-C heterotrimers (18 chains); one chain of each kind is given. The collagen-like regions carry hydroxyproline and hydroxylysine.) (A chain, as listed by the source limits assumed, form in doubt, chain 1 of 3): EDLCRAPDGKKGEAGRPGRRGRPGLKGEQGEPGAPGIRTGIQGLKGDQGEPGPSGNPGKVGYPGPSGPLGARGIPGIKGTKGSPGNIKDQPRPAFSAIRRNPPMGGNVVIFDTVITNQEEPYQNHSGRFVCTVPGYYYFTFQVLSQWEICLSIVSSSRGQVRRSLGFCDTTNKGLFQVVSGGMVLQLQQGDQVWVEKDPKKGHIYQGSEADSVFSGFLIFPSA
Sequence of C1q (Native C1q is a hexamer of A-B-C heterotrimers (18 chains); one chain of each kind is given. The collagen-like regions carry hydroxyproline and hydroxylysine.) (B chain, as listed by the source limits assumed, form in doubt, chain 2 of 3): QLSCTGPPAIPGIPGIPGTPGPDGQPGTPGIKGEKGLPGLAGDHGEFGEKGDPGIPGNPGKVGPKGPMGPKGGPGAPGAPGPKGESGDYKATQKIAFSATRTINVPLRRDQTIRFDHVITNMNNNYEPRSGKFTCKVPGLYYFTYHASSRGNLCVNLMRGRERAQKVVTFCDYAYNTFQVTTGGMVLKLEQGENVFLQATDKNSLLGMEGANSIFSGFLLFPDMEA
Sequence of C1q (Native C1q is a hexamer of A-B-C heterotrimers (18 chains); one chain of each kind is given. The collagen-like regions carry hydroxyproline and hydroxylysine.) (C chain, as listed by the source limits assumed, form in doubt, chain 3 of 3): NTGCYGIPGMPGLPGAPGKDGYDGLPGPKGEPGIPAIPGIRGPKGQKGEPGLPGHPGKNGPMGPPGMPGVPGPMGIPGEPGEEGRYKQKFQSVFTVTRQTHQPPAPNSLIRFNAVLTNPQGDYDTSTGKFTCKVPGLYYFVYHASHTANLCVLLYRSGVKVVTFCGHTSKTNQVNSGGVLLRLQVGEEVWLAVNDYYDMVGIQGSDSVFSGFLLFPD

human C1q [2] = molecular target: T1, human C1q; test: one-sided ELISA on human C1q, detection with enzyme-tagged anti-human-Fc or anti-human kappa antibody
Source text: Binding of Mab2-Fab, FabA and Mab2 to human C1q in a one-sided ELISA. Bound antibody or Fab molecules were detected using an enzyme-tagged anti-human-Fc or anti-human kappa antibody followed by enzyme substrate.

T1 sequence (P02745 23-245 limits assumed, chain 1 of 3): as the sequence (A chain, as listed by the source limits assumed, form in doubt, chain 1 of 3) above
T1 sequence (P02746 28-253 limits assumed, chain 2 of 3): as the sequence (B chain, as listed by the source limits assumed, form in doubt, chain 2 of 3) above
T1 sequence (P02747 29-245 limits assumed, chain 3 of 3): as the sequence (C chain, as listed by the source limits assumed, form in doubt, chain 3 of 3) above

B1: FabA (Fab)
heavy: QVQLVQSGAELKKPGASVKVSCKSSGYHFTSYWMHWVKQAPGQGLEWIGVIHPNSGSINYNEKFESRVTITVDKSTSTAYMELSSLRSEDTAVYYCAGERDSTEVLPMDYWGQGTTVTVSSASTKGPSVFPLAPSSKSTSGGTAALGCLVKDYFPEPVTVSWNSGALTSGVHTFPAVLQSSGLYSLSSVVTVPSSSLGTQTYICNVNHKPSNTKVDKKVEPKSCDKTHT
light: DVQITQSPSSLSASLGERATINCRASKSINKYLAWYQQKPGKAPKLLIYSGSTLQSGIPARFSGSGSGTDFTLTISSLEPEDFAMYYCQQHNEYPLTFGQGTKLEIKRTVAAPSVFIFPPSDEQLKSGTASVVCLLNNFYPREAKVQWKVDNALQSGNSQESVTEQDSKDSTYSLSSTLTLSKADYEKHKVYACEVTHQGLSSPVTKSFNRGEC
notes: Recombinant humanized IgG1 Fab; also called anti-C1q Fab; anti-C1q antibody Fab fragment
- half maximal inhibitory concentration (IC50) of inhibition of IgM-coated RBC hemolysis in human serum (human C1q [1]): 0.62 µg/mL and ~12 nM
- IC50 of inhibition of the classical pathway (IgM-coated wells, C5b-9 detection, Weislab ELISA kit) (C1q): ≤ 300 ng/mL
- EC50 (human C1q [2]): 2.5 ng/mL
